In PMC8709496, “Highly Active Thermophilic L-Asparaginase from Melioribacter roseus Represents a Novel Large Group of Type II Bacterial L-Asparaginases from Chlorobi-Ignavibacteriae-Bacteroidetes Clade” (International Journal of Molecular Sciences, 2021):

Substrate: NC(=O)C[C@H](N)C(=O)O
Experiment: purified protein
Type: biochemical, Melioribacter roseus
Settings: borate buffer 0.025 M, pH 9.3, 70 °C

B1: MrAII (type II L-asparaginase from M. roseus) (Melioribacter roseus P3M-2) (protein)
chain: MKNILIIFTGGTFSMKIDRETNSAVPYYHGEELLKIIPEADKKANISVYEFGNYPGPHMTPELMLELSEIVKKYINQNDTDGIIITHGTDTLEETAYFLDLTVKTEKPIVVIGAMKTSSEPDWDGPKNLLDAISIINNPNSGNMGVLVCLNGEINAASEVTKTHTEDIETFHSLDFGSLGFVENDRVIFNRLPRKLETFETAKINSNVDLIKVYAGMNEKFFKFSADSGADGLVVEAMGVGNVPPKAFEGIKYVIEKGIPVVLVSRCPAGETLDIYGYEGAGKWLKKAGVIFSDYLNGQKARIKLIVCLGITNEIAKLRSMFEDEQ
notes: synthetic native gene (981 nt, printed as 327 aa) in pET-28a(+) NheI/SalI, E. coli BL21(DE3); Q-Sepharose purified
For B1, which Km is on record?
Its Km is 1400 µM.
